How the values were obtained:
human erythrocytes = experiment: Hemolytic assay; type: cell-based; settings: 100 μg/ml
Protocol: Hemolytic assay. The hemolytic activity of DCD peptides was determined on fresh human erythrocytes, which were separated from human EDTA blood using a Ficoll gradient. Isolated erythrocytes were washed three times in 5 ml of PBS (50 mM sodium phosphate buffer, 150 mM NaCl [pH 7.0]) and centrifuged at 1,000×g for 6 min at room temperature. The pellets were resuspended in PBS and further diluted to a concentration of 10^9 human erythrocytes/ml. Hemolytic activity was determined as follows. To the human erythrocyte solution (50 μl), PBS (1 ml) was added, followed by different concentrations of the peptides. The suspension was incubated for 30 min at 37° C. and then centrifuged at 1,000×g for 6 min at 4° C. The supernatant was monitored at 415 nm by using a spectrophotometer (Bio-Rad, Munich, Germany). The hemolytic activity of each peptide was expressed as the percentage of the total hemoglobin release compared to the release after incubation with Millipore water.

[1] = CF release assay with unilamellar liposomes; settings: even after the addition of 10 μM peptide; relative to Triton X-100
Protocol: FIG. 9. Effect of DCD-derived peptides on membrane permeability. (A) Outer membrane permeability measured by peptide-mediated NPN uptake in E. coli ML-35p. E. coli cells were incubated with 10 μM NPN in the presence of various concentrations of DCD peptides in 5 mM sodium HEPES buffer (pH 7.4). Enhanced uptake due to membrane permeability was measured by an increase in fluorescence intensity (Ex350 and Em460) caused by partition of NPN into the hydrophobic interior of the outer membrane. At time point 0 min, intact E. coli ML-35p cells were added to the peptides. The results are expressed as NPN uptake factor of fluorescence in arbitrary units. All analyses were performed in triplicates. (B) Inner membrane permeability measured as the influx of ONPG in E. coli ML-35p after the addition of DCD peptides. […] The release of ONP by cytoplasmic β-galactosidase was spectrophotometrically monitored at 420 nm. […] All samples were analyzed in triplicates. […] Release was determined 4 min after peptide addition at concentrations of 1 to 10 μM. […] Reaction progress was expressed as the percentage of CF released relative to the total fluorescence released after the addition of Triton X-100 solution at the end of each experiment.
Preparation of liposomes and CF release assay. […] The liposome concentration was determined by phosphorous analysis (Rouser, G. et al. 1970 Lipids 5:494-496). […]

[2] = test system: Escherichia coli, Staphylococcus aureus, Enterococcus faecalis and Candida albicans; experiment: CFU test (colony-forming units), Example 4; type: cell-based; settings: sodium phosphate buffer, 37° C., 3 h, 4 h or overnight
Protocol: The antimicrobial effect of said peptides was carried out by a CFU test (test for colony-forming units) as described for the defensins by Valore et al., “Human Beta-Defensin-1: An Antimicrobial Peptide of Urogenital Tissues”, J Clin Invest 101, 1633-1642 (1998).
The test of the novel peptides was carried out with Escherichia coli, Staphylococcus aureus, Enterococcus faecalis and Candida albicans. E. coli was incubated in LB medium, E. faecalis and S. aureus in Columbia medium (Difko, BD Heidelberg) and C. albicans in casein hydrolysate medium (Merck, Darmstadt). The amounts of bacteria and yeasts were determined by photometry. The bacterial strains were incubated to an optical density of […] at 600 nm and the yeast was incubated to an optical density of 0.4-0.6 at 450 nm. The amount of the organisms was determined by plating various dilutions as follows: an OD of 1 at 600 nm is equivalent to 8.2×10^9/ml for E. coli, 1.9×10^10/ml for S. aureus and 9.0×10^9/ml for E. faecalis, and an OD of 1 at […] is equivalent to 1.4×10^8/ml for C. albicans.
The cells were washed twice with 10 mM sodium phosphate buffer (pH 7.4) and diluted to 2-3×10^7 cells/ml (E. coli, E. faecalis), 5.7×10^7 cells/ml (S. aureus) or 5×10^5 cells/ml (C. albicans) in phosphate buffer.
The cells were incubated with various amounts of the peptides in 200 μl of sodium phosphate buffer at 37° C. for 3 h, 4 h or overnight (21-24 h). The cells were diluted 1:10 to 1:100 for the bacteria and 1:500 to 1:5000 for the yeast, and 50 μl, 100 μl and 200 μl were plated on appropriate agar plates. The plates were incubated at 37° C. overnight, and the number of colonies was counted. The antimicrobial effect of the peptides has been stated as percentage of killed cells: [1−(cell survival after incubation with the peptide)/(cell survival after control incubation)]×100.

[3] = CD spectroscopy, secondary structure; type: physicochemical
Protocol: CD) spectroscopy. Circular dichroism (CD) measurements were performed with a Jasco J-720 CD spectrapolarimeter (Jasco, Tokyo, Japan) to determine the secondary structure of DCD-derived peptides. The data are reported as the average of three to four scans at 50 nm/min with a 1-nm step resolution. The CD spectra of the peptides (50 μM) in 10 mM sodium phosphate buffer (pH 7.0) with different amounts of NaCl (10, 100, and 150 mM) in 0 to 60% (vol/vol) trifluoroethanol (TFE) and in the presence of artificial phospholipid vesicles such as DOPC and DOPC-DOPG (1:1 molar ratio) were recorded at room temperature in the 180- to 260-nm wavelength range. The data are reported as the mean residue ellipticity in units of degrees cm^2 dmol^−1 and plotted versus wavelength. The secondary structural predictions for peptides were carried out by Jasco secondary structure software.

[4] = DOPC-DOPG (1:1 molar ratio) liposomes

Compound | hemolytic activity (human erythrocytes) | CF leakage from liposomes made of DOPC and DOPC-DOPG [1] [%] | antimicrobial effect (percentage of killed cells) [2] | Secondary structure, Random coil ([3]; 10 mM NaP) [%] | Secondary structure, Turn ([3]; 10 mM NaP) [%] | Secondary structure, α-Helix ([3]; 10 mM NaP) [%] | Secondary structure, β-Sheet ([3]; 10 mM NaP) [%] | Secondary structure, Random coil ([3]; 60% TFE) [%] | Secondary structure, Turn ([3]; 60% TFE) [%] | Secondary structure, α-Helix ([3]; 60% TFE) [%] | Secondary structure, β-Sheet ([3]; 60% TFE) [%] | Secondary structure, Random coil [3, 4] [%] | Secondary structure, Turn [3, 4] [%] | Secondary structure, α-Helix [3, 4] [%] | Secondary structure, β-Sheet [3, 4] [%] | Secondary structure, Random coil ([3]; dH2O) [%] | Secondary structure, Turn ([3]; dH2O) [%] | Secondary structure, α-Helix ([3]; dH2O) [%] | Secondary structure, β-Sheet ([3]; dH2O) [%]
CC[C@H](C)[C@H](NC(=O)[C@H](CCCCN)NC(=O)[C@H](CCC(=O)O)NC(=O)[C@H](CCCCN)NC(=O)[C@H](CO)NC(=O)[C@H](CCCCN)NC(=O)[C@H](CCCNC(=N)N)NC(=O)[C@H](Cc1ccccc1)NC(=O)[C@H](Cc1ccccc1)NC(=O)[C@H](CC(=O)O)NC(=O)CNC(=O)[C@H](CC(C)C)NC(=O)[C@@H](N)CC(C)C)C(=O)NCC(=O)N[C@@H](CCCCN)C(=O)N[C@@H](CCC(=O)O)C(=O)N[C@@H](Cc1ccccc1)C(=O)N[C@@H](CCCCN)C(=O)N[C@@H](CCCNC(=N)N)C(=O)N[C@H](C(=O)N[C@H](C(=O)N[C@@H](CCC(N)=O)C(=O)N[C@@H](CCCNC(=N)N)C(=O)N[C@H](C(=O)N[C@@H](CCCCN)C(=O)N[C@@H](CC(=O)O)C(=O)N[C@@H](Cc1ccccc1)C(=O)N[C@@H](CC(C)C)C(=O)N[C@@H](CCCNC(=N)N)C(=O)N[C@@H](CC(N)=O)C(=O)N[C@@H](CC(C)C)C(=O)N[C@H](C(=O)N1CCC[C@H]1C(=O)N[C@@H](CCCNC(=N)N)C(=O)N[C@H](C(=O)N[C@@H](CCC(=O)O)C(=O)N[C@@H](CO)C(=O)O)[C@@H](C)O)C(C)C)[C@@H](C)CC)C(C)C)[C@@H](C)CC [LL-37] | up to 2.5% | – | – | – | – | – | – | – | – | – | – | – | – | – | – | – | – | – | –
DPYAEAASGPNPGSKSHESAQAENCGADPE [DPI, negative control peptide, unrelated scrambled peptide] | – | ≤ 2 | no appreciable antimicrobial effect | 54.8 | 19.4 | 0.0 | 25.8 | 42.5 | 6.0 | 9.6 | 42.0 | 51.2 | 19.1 | 0.0 | 29.7 | 50.3 | 15.4 | 0.0 | 34.3
